Results on 2 proteins are retold here after patent US5879680A, “Cloned DNA for synthesizing unique glucocerebrosidase” (The United States of America as represented by the …, priority 1995, dated 1999).

Broadly, the Km is the concentration of substrate that gives half-maximal velocity.

Substrate in data set [1]: Cc1cc(=O)oc2cc(O[C@@H]3O[C@H](CO)[C@@H](O)[C@H](O)[C@H]3O)ccc12
Kind of data set: purified protein, by the assay type. Format: biochemical, human. The conditions noted are these: other: recombinant enzyme in the media, pH 5.9, 100 mM potassium phosphate, 0.15% Triton X-100, 0.125% sodium taurocholate, 37.0 °C. The method, then: For pH profile and inhibition studies, glucocerebrosidase activity was measured using 100 mM potassium phosphate buffer containing 0.15% Triton X-100, 2.5 μl of β-D-[1-^14 C] glucocerebroside (7.5 mg/ml in sodium taurocholate at 50 mg/ml), and the sample in the total volume of 200 ul. Preincubations with conduritol-B-epoxide were for 30 min at 37° C. […] Purification of recombinant glucocerebrosidase was also monitored using 4MUGP.

Substrate in data set [2]: Cc1cc(=O)oc2cc(O[C@@H]3O[C@H](CO)[C@@H](O)[C@H](O)[C@H]3O)ccc12
Briefly: purified protein, by the assay type. The conditions noted are these: other: recombinant enzyme in the cell pellet, pH 5.9, 100 mM potassium phosphate, 0.15% Triton X-100, 0.125% sodium taurocholate, 37.0 °C.

B1: recombinant human glucocerebrosidase produced in baculovirus expression system (SF9 cells), culture media enzyme (Homo sapiens) (protein)
chain: ARPCIPKSFGYSSVVCVCNATYCDSFDPPTFPALGTFSRYESTRSGRRMELSMGPIQANHTGTGLLLTLQPEQKFQKVKGFGGAMTDAAALNILALSPPAQNLLLKSYFSEEGIGYNIIRVPMASCDFSIRTYTYADTPDDFQLHNFSLPEEDTKLKIPLIHRALQLAQRPVSLLASPWTSPTWLKTNGAVNGKGSLKGQPGDIYHQTWARYFVKFLDAYAEHKLQFWAVTAENEPSAGLLSGYPFQCLGFTPEHQRDFIARDLGPTLANSTHHNVRLLMLDDQRLLLPHWAKVVLTDPEAAKYVHGIAVHWYLDFLAPAKATLGETHRLFPNTMLFASEACVGSKFWEQSVRLGSWDRGMQYSHSIITNLLYHVVGWTDWNLALNPEGGPNWVRNFVDSPIIVDITKDTFYKQPMFYHLGHFSKFIPEGSQRVGLVASQKNDLDAVALMHPDGSAVVVVLNRSSKDVPLTIKDPAVGFLETISPGYSIHTYLWRRQ
notes: made in house; host or cells: Spodoptera frugiperda SF9 cells, recombinant baculovirus (AcNPV, pAc373/GC)
B1: in data set [1], the Km came to 3.3 mM.

B2: recombinant human glucocerebrosidase produced in baculovirus expression system (SF9 cells), cell pellet enzyme (Homo sapiens) (protein)
chain: B1 chain
As to B2, the Km in data set [2] is listed as 3.6 mM.
